Assay results from article PMC314469, “Protein Interaction Networks by Proteome Peptide Scanning” (PLoS Biology, 2004).

T1: Boi1 SH3 (BOI1_YEAST), P38041
T1 chain: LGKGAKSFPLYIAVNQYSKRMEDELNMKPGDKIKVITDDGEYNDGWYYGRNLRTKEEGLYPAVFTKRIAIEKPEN

T2: Boi2 SH3 (BOI2_YEAST), P39969
T2 chain: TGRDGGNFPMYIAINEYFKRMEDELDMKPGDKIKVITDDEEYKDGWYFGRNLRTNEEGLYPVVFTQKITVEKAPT

T3: Myo5 SH3 (MYO5_YEAST), Q04439
T3 chain: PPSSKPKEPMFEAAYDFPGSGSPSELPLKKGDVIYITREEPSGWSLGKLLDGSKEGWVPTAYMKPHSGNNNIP

T4: Rvs167 SH3 (RV167_YEAST), P39743
T4 chain: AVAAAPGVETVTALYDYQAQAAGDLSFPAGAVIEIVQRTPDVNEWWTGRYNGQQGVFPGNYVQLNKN

T5: Yfr024 SH3 (LSB3_YEAST), P43603
T5 chain: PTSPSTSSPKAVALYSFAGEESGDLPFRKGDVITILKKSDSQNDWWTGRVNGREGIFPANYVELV

T6: Yhr016c SH3 (YSC84_YEAST), P32793
T6 chain: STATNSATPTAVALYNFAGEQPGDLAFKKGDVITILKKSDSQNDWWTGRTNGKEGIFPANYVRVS


Biological target: T1, Boi1 SH3 (BOI1_YEAST), P38041
Test: SPOT array

| normalised SPOT signal, Boehringer light units (BLU); mean over the file's lines of this peptide | Binder |
| --- | --- |
| 1100 | KRKAKAPPPPPPPP [YDL146W 469-482] |
| 33.6 | KQKKKPTPTRPYNY [YKL089W 339-352] |
| 470 | KQAKRAPPSSPYVV [YDR406W 496-509] |
| 585 | KRRSKSLPITPKSI [YIL045W 157-170] |
| 196 | KNLLREIPQVPAFQ [YLR077W 141-154] |
| 90.4 | KPAGRPIPPAPTHY [YGR058W 101-114] |
| 304 | KNILKVSPVLPSIL [YMR247C 301-314] |
| 767 | KQLKKQGPKRPSSA [YKL032C 354-367] |
| 310 | KRRSKSLPTTPGIR [YER054C 189-202] |
| 656 | KNLKKYDPEDPNRR [YPL093W 383-396] |
| 291 | KQSKRARPSSPYTV [YOR153W 486-499] |
| 0 | KNIIKYVPWGPPLE [YLR142W 425-438] |
| 594 | KQLMKNLPKIPLLN [YDR228C 355-368] |
| 800 | KQRIRKIPGIPLMS [YDR339C 161-174] |
| 36.2 | KNPTKSPPPPPSPS [YLR337C 698-711] |
| 1220 | KMSAKNTPKHPVDI [YPL082C 209-222] |

Biological target: T2, Boi2 SH3 (BOI2_YEAST), P39969
Test: SPOT array

| normalised SPOT signal, Boehringer light units (BLU); mean over the file's lines of this peptide | Binder |
| --- | --- |
| 22.4 | KRKAKAPPPPPPPP [YDL146W 469-482] |
| 26.3 | KQKKKPTPTRPYNY [YKL089W 339-352] |
| 2.9 | KQAKRAPPSSPYVV [YDR406W 496-509] |
| 6.2 | KRRSKSLPITPKSI [YIL045W 157-170] |
| 6.5 | KNLLREIPQVPAFQ [YLR077W 141-154] |
| 0 | KPAGRPIPPAPTHY [YGR058W 101-114] |
| 0.8 | KNILKVSPVLPSIL [YMR247C 301-314] |
| 28.7 | KQLKKQGPKRPSSA [YKL032C 354-367] |
| 0.8 | KRRSKSLPTTPGIR [YER054C 189-202] |
| 0 | KNLKKYDPEDPNRR [YPL093W 383-396] |
| 11.9 | KQSKRARPSSPYTV [YOR153W 486-499] |
| 13.9 | KNIIKYVPWGPPLE [YLR142W 425-438] |
| 9.8 | KQLMKNLPKIPLLN [YDR228C 355-368] |
| 108 | KQRIRKIPGIPLMS [YDR339C 161-174] |
| 16.7 | KNPTKSPPPPPSPS [YLR337C 698-711] |
| 42.3 | KMSAKNTPKHPVDI [YPL082C 209-222] |

Biological target: T3, Myo5 SH3 (MYO5_YEAST), Q04439
Test: SPOT array

| normalised SPOT signal, Boehringer light units (BLU); mean over the file's lines of this peptide | Binder |
| --- | --- |
| 4030 | KRKAKAPPPPPPPP [YDL146W 469-482] |
| 516 | KQKKKPTPTRPYNY [YKL089W 339-352] |
| 295 | KQAKRAPPSSPYVV [YDR406W 496-509] |
| 921 | KRRSKSLPITPKSI [YIL045W 157-170] |
| 104 | KNLLREIPQVPAFQ [YLR077W 141-154] |
| 189 | KPAGRPIPPAPTHY [YGR058W 101-114] |
| 118 | KNILKVSPVLPSIL [YMR247C 301-314] |
| 468 | KQLKKQGPKRPSSA [YKL032C 354-367] |
| 592 | KRRSKSLPTTPGIR [YER054C 189-202] |
| 207 | KNLKKYDPEDPNRR [YPL093W 383-396] |
| 271 | KQSKRARPSSPYTV [YOR153W 486-499] |
| 164 | KNIIKYVPWGPPLE [YLR142W 425-438] |
| 580 | KQLMKNLPKIPLLN [YDR228C 355-368] |
| 622 | KQRIRKIPGIPLMS [YDR339C 161-174] |
| 27800 | KNPTKSPPPPPSPS [YLR337C 698-711] |
| 307 | KMSAKNTPKHPVDI [YPL082C 209-222] |

Biological target: T4, Rvs167 SH3 (RV167_YEAST), P39743
Test: SPOT array

| normalised SPOT signal, Boehringer light units (BLU); mean over the file's lines of this peptide | Binder |
| --- | --- |
| 31.2 | KRKAKAPPPPPPPP [YDL146W 469-482] |
| 31.6 | KQKKKPTPTRPYNY [YKL089W 339-352] |
| 19.4 | KQAKRAPPSSPYVV [YDR406W 496-509] |
| 125 | KRRSKSLPITPKSI [YIL045W 157-170] |
| 2030 | KNLLREIPQVPAFQ [YLR077W 141-154] |
| 2260 | KPAGRPIPPAPTHY [YGR058W 101-114] |
| 59.5 | KNILKVSPVLPSIL [YMR247C 301-314] |
| 80.4 | KQLKKQGPKRPSSA [YKL032C 354-367] |
| 17.6 | KRRSKSLPTTPGIR [YER054C 189-202] |
| 121 | KNLKKYDPEDPNRR [YPL093W 383-396] |
| 102 | KQSKRARPSSPYTV [YOR153W 486-499] |
| 16.2 | KNIIKYVPWGPPLE [YLR142W 425-438] |
| 130 | KQLMKNLPKIPLLN [YDR228C 355-368] |
| 3830 | KQRIRKIPGIPLMS [YDR339C 161-174] |
| 41 | KNPTKSPPPPPSPS [YLR337C 698-711] |
| 301 | KMSAKNTPKHPVDI [YPL082C 209-222] |

What follows are binders tested against Sho1 SH3 (SHO1_YEAST), P40073 (assay: SPOT array).
Sequence of Sho1 SH3 (SHO1_YEAST), P40073 (P40073 295-366): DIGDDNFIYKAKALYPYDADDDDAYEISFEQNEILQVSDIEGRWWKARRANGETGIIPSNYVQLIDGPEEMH

| normalised SPOT signal, Boehringer light units (BLU); mean over the file's lines of this peptide | Binder |
| --- | --- |
| 17.5 | KRKAKAPPPPPPPP [YDL146W 469-482] |
| 97.1 | KQKKKPTPTRPYNY [YKL089W 339-352] |
| 127 | KQAKRAPPSSPYVV [YDR406W 496-509] |
| 19400 | KRRSKSLPITPKSI [YIL045W 157-170] |
| 84.8 | KNLLREIPQVPAFQ [YLR077W 141-154] |
| 115 | KPAGRPIPPAPTHY [YGR058W 101-114] |
| 57.8 | KNILKVSPVLPSIL [YMR247C 301-314] |
| 151 | KQLKKQGPKRPSSA [YKL032C 354-367] |
| 29800 | KRRSKSLPTTPGIR [YER054C 189-202] |
| 76.6 | KNLKKYDPEDPNRR [YPL093W 383-396] |
| 99.9 | KQSKRARPSSPYTV [YOR153W 486-499] |
| 33.3 | KNIIKYVPWGPPLE [YLR142W 425-438] |
| 36400 | KQLMKNLPKIPLLN [YDR228C 355-368] |
| 179 | KQRIRKIPGIPLMS [YDR339C 161-174] |
| 0 | KNPTKSPPPPPSPS [YLR337C 698-711] |
| 102 | KMSAKNTPKHPVDI [YPL082C 209-222] |

Biological target: T5, Yfr024 SH3 (LSB3_YEAST), P43603
Test: SPOT array

| normalised SPOT signal, Boehringer light units (BLU); mean over the file's lines of this peptide | Binder |
| --- | --- |
| 19.3 | KRKAKAPPPPPPPP [YDL146W 469-482] |
| 680 | KQKKKPTPTRPYNY [YKL089W 339-352] |
| 152 | KQAKRAPPSSPYVV [YDR406W 496-509] |
| 559 | KRRSKSLPITPKSI [YIL045W 157-170] |
| 1080 | KNLLREIPQVPAFQ [YLR077W 141-154] |
| 4480 | KPAGRPIPPAPTHY [YGR058W 101-114] |
| 0 | KNILKVSPVLPSIL [YMR247C 301-314] |
| 751 | KQLKKQGPKRPSSA [YKL032C 354-367] |
| 562 | KRRSKSLPTTPGIR [YER054C 189-202] |
| 45.8 | KNLKKYDPEDPNRR [YPL093W 383-396] |
| 462 | KQSKRARPSSPYTV [YOR153W 486-499] |
| 1.3 | KNIIKYVPWGPPLE [YLR142W 425-438] |
| 794 | KQLMKNLPKIPLLN [YDR228C 355-368] |
| 12300 | KQRIRKIPGIPLMS [YDR339C 161-174] |
| 74.8 | KNPTKSPPPPPSPS [YLR337C 698-711] |
| 978 | KMSAKNTPKHPVDI [YPL082C 209-222] |

Biological target: T6, Yhr016c SH3 (YSC84_YEAST), P32793
Test: SPOT array

| normalised SPOT signal, Boehringer light units (BLU); mean over the file's lines of this peptide | Binder |
| --- | --- |
| 11.5 | KRKAKAPPPPPPPP [YDL146W 469-482] |
| 44.3 | KQKKKPTPTRPYNY [YKL089W 339-352] |
| 20.9 | KQAKRAPPSSPYVV [YDR406W 496-509] |
| 58.1 | KRRSKSLPITPKSI [YIL045W 157-170] |
| 142 | KNLLREIPQVPAFQ [YLR077W 141-154] |
| 2860 | KPAGRPIPPAPTHY [YGR058W 101-114] |
| 10.1 | KNILKVSPVLPSIL [YMR247C 301-314] |
| 109 | KQLKKQGPKRPSSA [YKL032C 354-367] |
| 34.5 | KRRSKSLPTTPGIR [YER054C 189-202] |
| 71.3 | KNLKKYDPEDPNRR [YPL093W 383-396] |
| 66.6 | KQSKRARPSSPYTV [YOR153W 486-499] |
| 26.6 | KNIIKYVPWGPPLE [YLR142W 425-438] |
| 95.2 | KQLMKNLPKIPLLN [YDR228C 355-368] |
| 1120 | KQRIRKIPGIPLMS [YDR339C 161-174] |
| 11.2 | KNPTKSPPPPPSPS [YLR337C 698-711] |
| 332 | KMSAKNTPKHPVDI [YPL082C 209-222] |
